T1: hPD-1 peptide No. 12 (TDKLAAFPED) (human)
T1 construct: also called PD1 peptide 12; peptide 12
T1 peptide: TDKLAAFPED

B1: IMT200 (antibody, V domains shown)
VH: QVQLQQSGPELVKPGASVKISCKASGFAFSGSWMNWMKQRPGKGLEWIGRIYPGDGDTNYNGKSKGKATLTADTSSSTAYMQLSSLTSEDSAVYFCTRSTTILADYWGQGTTLTVSS
VL: DIQMTQTTSSLSASLGDRVTISCRASQDIANYLNWYQQKPDGTVKLLIYYTSRKYSGVPSRFSGSGSGTDYSLTISNLDQEDIATYFCQQGKTLPWTFGGGTKLEIK
notes: Monoclonal raised against non-glycosylated His-tagged hPD-1 and detected with anti-mouse IgG-HRP; also called monoclonal antibody IMT200; anti-PD-1 mAb IMT200

Legend:
[1] = molecular target: Purified human PD1 extracellular domain produced in E. coli fused to Fc (Ray Biotech) (human) (UniProt Q15116); assay: blocking ELISA; E. coli hPD1 ECD-Fc coated, antibody at 20 ug/ml, competitor ligand biotinylated deglycosylated mPD-1 Fc
[2] = molecular target: T1, hPD-1 peptide No. 12 (TDKLAAFPED); assay: ELISA on hPD-1 peptide array

Sequence of Purified human PD1 extracellular domain produced in E. coli fused to Fc (Ray Biotech) (human) (Q15116 25-170): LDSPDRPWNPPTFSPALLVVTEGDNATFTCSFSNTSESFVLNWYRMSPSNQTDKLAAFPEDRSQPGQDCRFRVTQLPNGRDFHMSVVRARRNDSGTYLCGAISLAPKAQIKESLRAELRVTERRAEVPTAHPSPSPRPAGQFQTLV

Molecule | binding remaining, % of unblocked controls (% of unblocked controls) [1] | binding result [2]
mab12 (LS-C131333, LS Bio) (antibody) | 86 | 
B1 |  | binds

Source: patent US20210363255A1 (TRUEBINDING, published 2021)
